The text below walks through data of US20180155451A1 (published 2018).

B1: GpH7-A5/GpH7-B3 variant A327_12R/GpL16-k0 (antibody, human IgG1, kappa)
heavy 1: not shown
heavy 2: not shown
light: DIVMTQSPLSLPVTPGEPASISCQASESLVHSNRNTYLHWYLQKPGQSPQLLIYKVSNRFSGVPDRFSGSGSGTDFTLKISRVEAEDVGVYYCSQNTHVPPTFGQGTKVEIERTVAAPSVFIFPPSDEQLKSGTASVVCLLNNFYPREAKVQWKVDNALQSGNSQESVTEQDSKDSTYSLSSTLTLSKADYEKHKVYACEVTHQGLSSPVTKSFNRGEC
notes: position is EU numbering; also called He Ab
B2: GpH7-A5/GpH7-B3 variant L328_12R/GpL16-k0 (antibody, human IgG1, kappa)
heavy 1: not shown
heavy 2: not shown
light: B1 light
notes: as for B1
B3: GpH7-A5/GpH7-B3 variant L328_11K/GpL16-k0 (antibody, human IgG1, kappa)
heavy 1: not shown
heavy 2: not shown
light: B1 light
notes: as for B1
B4: GpH7-A5/GpH7-B3 variant N325_01G/GpL16-k0 (antibody, human IgG1, kappa)
heavy 1: not shown
heavy 2: not shown
light: B1 light
notes: Heterodimerized IgG1; alteration in one H chain only; also called He Ab
B5: GpH7-A5/GpH7-B3 variant A327_07I/GpL16-k0 (antibody, human IgG1, kappa)
heavy 1: not shown
heavy 2: not shown
light: B1 light
notes: as for B4
B6: GpH7-A5/GpH7-B3 variant A327_16H/GpL16-k0 (antibody, human IgG1, kappa)
heavy 1: not shown
heavy 2: not shown
light: B1 light
notes: as for B4
B7: GpH7-A5/GpH7-B3 variant A327_08L/GpL16-k0 (antibody, human IgG1, kappa)
heavy 1: not shown
heavy 2: not shown
light: B1 light
notes: as for B4
B8: GpH7-A5/GpH7-B3 variant Y300_05P/GpL16-k0 (antibody, human IgG1, kappa)
heavy 1: not shown
heavy 2: not shown
light: B1 light
notes: as for B4
B9: GpH7-A5/GpH7-B3 variant A327_15Y/GpL16-k0 (antibody, human IgG1, kappa)
heavy 1: not shown
heavy 2: not shown
light: B1 light
notes: as for B4
B10: GpH7-A5/GpH7-B3 variant A327_04F/GpL16-k0 (antibody, human IgG1, kappa)
heavy 1: not shown
heavy 2: not shown
light: B1 light
notes: as for B4
B11: GpH7-A5/GpH7-B3 variant A327_03V/GpL16-k0 (antibody, human IgG1, kappa)
heavy 1: not shown
heavy 2: not shown
light: B1 light
notes: as for B4
B12: GpH7-A5/GpH7-B3 variant A327_01G/GpL16-k0 (antibody, human IgG1, kappa)
heavy 1: not shown
heavy 2: not shown
light: B1 light
notes: as for B4
B13: GpH7-A5/GpH7-B3 variant A327_09D/GpL16-k0 (antibody, human IgG1, kappa)
heavy 1: not shown
heavy 2: not shown
light: B1 light
notes: as for B4

One assay addresses T1, FcγRIIIa extracellular domain with C-terminal His tag (human, UniProt P08637 17-208).
T1 construct: extracellular domain; also called FcgRIIIa; 3a; not shown: His tag at the C terminus
The assay can be described thus: SPR (Biacore); ratio of He/Con_3a (FcγRIIIa) to He/Con_2b (FcγRIIb). As for the experimental part:
(§1) The heterodimerized antibodies He Abs in which one of the H chains was introduced with an alteration were assayed for their binding activities to each activating FcγR and inhibitory FcγR according to the method described in Example 4. […] The activating FcγRs in FIGS. 26, 27, 28, and 29 are FcγRIa, FcγRIIa (R), FcγRIIa (H), and FcγRIIIa, respectively.
(§2) Analysis of interaction between objective antibody and the FcγR was carried out using Biacore T100 (GE Healthcare). HBS-EP+ (GE Healthcare) was used as the running buffer, and the measurement temperature was set to 25° C. Chips produced by immobilizing the antigen peptide by the amine coupling method to a Series S Sencor Chip CM5 (GE Healthcare), or alternatively, chips produced by allowing preliminarily biotinylated antigen peptides to interact with and immobilize onto a Series S Sensor Chip SA (certified) (GE Healthcare) were used. Antibodies of interest were captured onto an antigen peptide-immobilized chip, and allowed to interact to each FcγR diluted with running buffer. To regenerate and repeatedly use the chip, the antibodies captured on the chip were washed off by reacting 10 mM glycine-HCl, pH 1.5.
T1 sequence (P08637 17-208): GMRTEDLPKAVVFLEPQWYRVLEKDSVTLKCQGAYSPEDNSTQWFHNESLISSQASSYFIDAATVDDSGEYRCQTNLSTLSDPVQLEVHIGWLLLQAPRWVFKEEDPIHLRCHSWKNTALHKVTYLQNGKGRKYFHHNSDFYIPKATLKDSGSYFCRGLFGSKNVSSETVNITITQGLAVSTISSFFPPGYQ
Regarding B1, the “He_3a/2b (IIIa/IIb)” value stood at 2.15 ratio.

With B2, the “He_3a/2b (IIIa/IIb)” value turned out to be 3.53 ratio.

As for B3, the “He_3a/2b (IIIa/IIb)” value is 4.46 ratio.

In another assay the target is T2, FcγRIIIa extracellular domain with C-terminal His tag (human, UniProt P08637 17-208).
T2 construct: extracellular domain; also called FcgRIIIa; 3a; not shown: His tag attached to the C terminus
The assay is described as follows: SPR (Biacore); He/Con_3a divided by He/Con_2b (reference: binding to FcγRIIb). As for the experimental part: as §2
(§3) The FcγR-binding activity of each antibody was assessed primarily using as an indicator the FcγR-binding activity and dissociation constant for FcγR.
T2 sequence (P08637 17-208): as above
For B4, the “He_3a/2b (IIIa/IIb)” value amounted to 0.28 ratio.

As for B5, the “He_3a/2b (IIIa/IIb)” value is 0.33 ratio.

For B6, the “He_3a/2b (IIIa/IIb)” value amounted to 0.69 ratio.

B7: the “He_3a/2b (IIIa/IIb)” value was determined as 0.67 ratio.

Regarding B8, the “He_3a/2b (IIIa/IIb)” value was 0.38 ratio.

Consider B9, for which the “He_3a/2b (IIIa/IIb)” value is 0.77 ratio.

As for B10, the “He_3a/2b (IIIa/IIb)” value was found to be 0.72 ratio.

As to B11, the “He_3a/2b (IIIa/IIb)” value was 0.48 ratio.

As for B12, the “He_3a/2b (IIIa/IIb)” value is 0.63 ratio.

With B13, the “He_3a/2b (IIIa/IIb)” value came to 0.49 ratio.

A further assay deals with T2, FcγRIIIa extracellular domain with …. The assay is described as follows: SPR (Biacore), relative binding. The procedure:
as §2, §3
(SPR reads the build-up and loss of mass on a sensor chip optically.)
In the case of B4, the “He/Con_3a (IIIa binding)” value is 28 % of GpH7-A5/GpH7-B3/GpL16-k0 (=100).

In the case of B5, the “He/Con_3a (IIIa binding)” value was 42.4 % of GpH7-A5/GpH7-B3/GpL16-k0 (=100).

For B6, the “He/Con_3a (IIIa binding)” value is 43.7 % of GpH7-A5/GpH7-B3/GpL16-k0 (=100).

As to B7, the “He/Con_3a (IIIa binding)” value is 42 % of GpH7-A5/GpH7-B3/GpL16-k0 (=100).

As to B8, the “He/Con_3a (IIIa binding)” value is 2.8 % of GpH7-A5/GpH7-B3/GpL16-k0 (=100).

Regarding B9, the “He/Con_3a (IIIa binding)” value is 46.8 % of GpH7-A5/GpH7-B3/GpL16-k0 (=100).

On to B10, for which the “He/Con_3a (IIIa binding)” value is 46.2 % of GpH7-A5/GpH7-B3/GpL16-k0 (=100).

Take B11: the “He/Con_3a (IIIa binding)” value was 45.8 % of GpH7-A5/GpH7-B3/GpL16-k0 (=100).

Consider B12, for which the “He/Con_3a (IIIa binding)” value is 72.4 % of GpH7-A5/GpH7-B3/GpL16-k0 (=100).

In the case of B13, the “He/Con_3a (IIIa binding)” value is 83.7 % of GpH7-A5/GpH7-B3/GpL16-k0 (=100).

The target in a further assay is T3, FcγRIIb extracellular domain with C-terminal His tag (human, UniProt P31994 43-217).
T3 construct: extracellular domain; also called FcgRIIb; 2b; not shown: His tag attached to the C terminus
T3 sequence (looked up): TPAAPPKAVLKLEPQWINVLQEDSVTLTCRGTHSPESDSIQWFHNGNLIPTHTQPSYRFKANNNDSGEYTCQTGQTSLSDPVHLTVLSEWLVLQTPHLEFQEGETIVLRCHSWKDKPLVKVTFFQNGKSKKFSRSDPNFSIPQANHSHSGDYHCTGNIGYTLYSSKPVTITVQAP
The assay can be described thus: SPR (Biacore), relative binding. As for the experimental part: as §2, §3
Consider B4, for which the “He/Con_2b (IIb binding)” value was 101 % of GpH7-A5/GpH7-B3/GpL16-k0 (=100).

Turning to B5, the “He/Con_2b (IIb binding)” value is 127 % of GpH7-A5/GpH7-B3/GpL16-k0 (=100).

On to B6, for which the “He/Con_2b (IIb binding)” value is 63.5 % of GpH7-A5/GpH7-B3/GpL16-k0 (=100).

As for B7, the “He/Con_2b (IIb binding)” value is 63.1 % of GpH7-A5/GpH7-B3/GpL16-k0 (=100).

On to B9, for which the “He/Con_2b (IIb binding)” value is 60.8 % of GpH7-A5/GpH7-B3/GpL16-k0 (=100).

Take B10: the “He/Con_2b (IIb binding)” value is 63.7 % of GpH7-A5/GpH7-B3/GpL16-k0 (=100).

For B11, the “He/Con_2b (IIb binding)” value was 94.7 % of GpH7-A5/GpH7-B3/GpL16-k0 (=100).

On to B12, for which the “He/Con_2b (IIb binding)” value is 116 % of GpH7-A5/GpH7-B3/GpL16-k0 (=100).

With B13, the “He/Con_2b (IIb binding)” value was 172 % of GpH7-A5/GpH7-B3/GpL16-k0 (=100).

The target in another assay is T1, FcγRIIIa extracellular domain with …. The assay can be described thus: SPR (Biacore), antibody captured, FcγR as analyte; He Ab binding / GpH7-A5/GpH7-B3/GpL16-k0 binding x 100. As for the experimental part: as §1, §2
With B1, the “He/Con_3a (IIIa binding)” value is 19.3 relative, control = 100.

As to B2, the “He/Con_3a (IIIa binding)” value was 32.7 relative, control = 100.

B3: the “He/Con_3a (IIIa binding)” value was 33.5 relative, control = 100.
